{"source": "patent US6365126", "molecular_target": "H-Ras (UniProt P01112)", "sequence (P01112 whole entry, looked up)": "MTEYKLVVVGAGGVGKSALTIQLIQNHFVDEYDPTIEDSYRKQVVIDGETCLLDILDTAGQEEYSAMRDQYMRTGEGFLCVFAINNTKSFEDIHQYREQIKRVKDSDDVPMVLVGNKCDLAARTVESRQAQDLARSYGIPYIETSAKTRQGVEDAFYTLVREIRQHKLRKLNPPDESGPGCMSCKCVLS"}
{"substance": "human NF1 catalytic domain fusion protein", "values": [{"measurement": "GTPase activity of H-Ras (GAP assay)", "value": "All three fusion proteins stimulated the GTPase activity of H-Ras"}]}
